Reference: ChEMBL document CHEMBL5143569

How the values were obtained:
[1] = substrate: CC1(CN)CCN(c2cnc(Sc3cccc(Cl)c3Cl)c(N)n2)CC1; details: Homo sapiens; filed as negative allosteric modulator; dose 0.2 µM
[2] = substrate: CC1(CN)CCN(c2cnc(Sc3cccc(Cl)c3Cl)c(N)n2)CC1; details: Homo sapiens; filed as negative allosteric modulator; dose 0.032 µM
Description: Non-competitive inhibition of wild-type human SHP2 (1 to 535 residues) using DiFMUP as substrate assessed as Km at 0.032 uM measured by Lineweaver-Burk plot analysis

[3] = substrate: CC1(CN)CCN(c2cnc(Sc3cccc(Cl)c3Cl)c(N)n2)CC1; details: Homo sapiens; filed as negative allosteric modulator; dose 0.08 µM
Description: Non-competitive inhibition of wild-type human SHP2 (1 to 535 residues) using DiFMUP as substrate assessed as Km at 0.08 uM measured by Lineweaver-Burk plot analysis

B1: Tyrosine-protein phosphatase non-receptor type 11 (Homo sapiens), Q06124 (protein)
chain: MTSRRWFHPNITGVEAENLLLTRGVDGSFLARPSKSNPGDFTLSVRRNGAVTHIKIQNTGDYYDLYGGEKFATLAELVQYYMEHHGQLKEKNGDVIELKYPLNCADPTSERWFHGHLSGKEAEKLLTEKGKHGSFLVRESQSHPGDFVLSVRTGDDKGESNDGKSKVTHVMIRCQELKYDVGGGERFDSLTDLVEHYKKNPMVETLGTVLQLKQPLNTTRINAAEIESRVRELSKLAETTDKVKQGFWEEFETLQQQECKLLYSRKEGQRQENKNKNRYKNILPFDHTRVVLHDGDPNEPVSDYINANIIMPEFETKCNNSKPKKSYIATQGCLQNTVNDFWRMVFQENSRVIVMTTKEVERGKSKCVKYWPDEYALKEYGVMRVRNVKESAAHDYTLRELKLSKVGQGNTERTVWQYHFRTWPDHGVPSDPGGVLDFLEEVHHKQESIMDAGPVVVHCSAGIGRTGTFIVIDILIDIIREKGVDCDIDVPKTIQMVRSQRSGMVQTEAQYRFIYMAVQHYIETLQRRIEEEQKSKRKGHEYTNIKYSLADQTSGDQSPLPPCTPTPPCAEMREDSARVYENVGLMQQQKSFR
Km [1]: 142 µM | Km [2]: 95.4 µM | Km [3]: 103 µM
